# Source: PMC8326427
# T1: rDHX36 (G4R1/RHAU) (UniProt Q9H2U1 1-1008)
# T1 sequence: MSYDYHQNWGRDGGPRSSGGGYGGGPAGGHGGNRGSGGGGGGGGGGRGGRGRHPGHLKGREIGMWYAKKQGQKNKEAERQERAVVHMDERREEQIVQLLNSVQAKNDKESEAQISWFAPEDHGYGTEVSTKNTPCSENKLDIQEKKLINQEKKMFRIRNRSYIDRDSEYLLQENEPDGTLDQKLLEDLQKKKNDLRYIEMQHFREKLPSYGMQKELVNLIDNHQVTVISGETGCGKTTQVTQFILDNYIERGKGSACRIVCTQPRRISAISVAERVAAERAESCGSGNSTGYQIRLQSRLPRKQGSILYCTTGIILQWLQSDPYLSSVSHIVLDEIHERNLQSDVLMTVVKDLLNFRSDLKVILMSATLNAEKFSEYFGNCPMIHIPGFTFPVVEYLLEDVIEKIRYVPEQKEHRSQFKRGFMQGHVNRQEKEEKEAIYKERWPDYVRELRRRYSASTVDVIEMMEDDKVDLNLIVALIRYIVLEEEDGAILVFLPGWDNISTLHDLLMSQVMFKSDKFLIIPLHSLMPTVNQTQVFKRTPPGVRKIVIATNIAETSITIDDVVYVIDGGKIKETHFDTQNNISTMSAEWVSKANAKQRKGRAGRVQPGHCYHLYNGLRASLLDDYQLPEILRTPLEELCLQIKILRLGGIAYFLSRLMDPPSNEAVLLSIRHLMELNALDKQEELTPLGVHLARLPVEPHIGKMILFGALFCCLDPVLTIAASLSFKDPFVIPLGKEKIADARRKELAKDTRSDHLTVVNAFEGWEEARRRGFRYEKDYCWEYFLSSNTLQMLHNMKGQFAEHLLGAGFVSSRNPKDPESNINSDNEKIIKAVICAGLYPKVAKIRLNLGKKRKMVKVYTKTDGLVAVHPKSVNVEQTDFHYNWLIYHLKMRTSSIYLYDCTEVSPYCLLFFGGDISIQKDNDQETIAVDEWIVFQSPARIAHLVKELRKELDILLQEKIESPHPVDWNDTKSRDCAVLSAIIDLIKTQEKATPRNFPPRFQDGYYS
# Molecular target: T1, rDHX36 (G4R1/RHAU)
# Experiment: EMSA
binder,measurement,value
"GGGGCCGGGGCCGGGGCCGGGGCCGGGGCCGTTAGAATTTTT (structured_DNA) [(G4C2)5-DNA, annealed with KCl (G4)]",binding result,binds
